Assay results from US20030148958A1 (PROCTER AND GAMBLE, published 2003).
Ends that are not written are not given here.

Columns and labels:
[1] = biological target: corticotropin releasing factor 1 receptor; test: cell-based or functional assay
[2] = biological target: T1, corticotropin releasing factor 2 receptor; test: cell-based or functional assay
T1 sequence (Q13324 whole entry, species assumed, looked up): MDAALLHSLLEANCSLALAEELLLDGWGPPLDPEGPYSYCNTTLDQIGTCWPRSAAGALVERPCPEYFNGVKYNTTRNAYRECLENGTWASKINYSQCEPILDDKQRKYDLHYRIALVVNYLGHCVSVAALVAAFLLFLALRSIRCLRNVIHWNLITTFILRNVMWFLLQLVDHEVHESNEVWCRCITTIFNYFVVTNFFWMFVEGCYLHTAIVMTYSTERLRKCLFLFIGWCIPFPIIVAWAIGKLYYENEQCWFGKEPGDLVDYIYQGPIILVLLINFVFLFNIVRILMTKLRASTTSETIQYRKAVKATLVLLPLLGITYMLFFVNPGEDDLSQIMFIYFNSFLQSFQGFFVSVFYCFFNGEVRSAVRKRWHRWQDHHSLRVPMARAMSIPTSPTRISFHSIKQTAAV
Wherever CRF1R Emax is given: reference of the scale not given here.
Wherever CRF2R Emax is given: reference of the scale not given here.

## ZGPPISIDLSIGLLRKMIEIEKQEKEKQQAANNRLLLDTI (C-terminal amide) [SEQ ID NO 25]
[1]
  CRF1R EC50: 677 nM
  CRF1R Emax: 92.3%
[2]
  CRF2R EC50: 81 nM
  CRF2R Emax: 81.9%

## ZGPPISIDLPIPLLRKMIEIEKQEKEKQQAANNRLLLDTI (not fully specified; C-terminal amide) [SEQ ID NO 26]
[1]
  CRF1R EC50: > 1000 nM
  CRF1R Emax: 16%
[2]
  CRF2R EC50: 91.8 nM
  CRF2R Emax: 86%

## ZGPPISIDLPQYLLRKMIEIEKQEKEKQQAANNRLLLDTI (C-terminal amide) [SEQ ID NO 27]
[1]
  CRF1R EC50: 325 nM
  CRF1R Emax: 100%
[2]
  CRF2R EC50: 10.7 nM
  CRF2R Emax: 96%

## ZGPPISIDLPIDLLRKMIEIEKQEKEKQQAANNRLLLDTI (C-terminal amide) [SEQ ID NO 28]
[1]
  CRF1R EC50: > 1000 nM
  CRF1R Emax: 2%
[2]
  CRF2R EC50: 100 nM
  CRF2R Emax: 15%

## ZGPPISIDLPIFLLRKMIEIEKQEKEKQQAANNRLLLDTI (C-terminal amide) [SEQ ID NO 29]
[1]
  CRF1R EC50: > 1000 nM
  CRF1R Emax: 79%
[2]
  CRF2R EC50: 16 nM
  CRF2R Emax: 100%

## ZGPPISIDLSLELLRKMIEIEKQEKEKQQAANNALLLATI (C-terminal amide) [SEQ ID NO 30]
[1]
  CRF1R EC50: 100 nM
  CRF1R Emax: 100%
[2]
  CRF2R EC50: 18.7 nM
  CRF2R Emax: 85.5%

## ZGPPISIDLPIVLLRKMIEIEKQEKEKQQAANNRLLLDTI (C-terminal amide) [SEQ ID NO 31]
[1]
  CRF1R EC50: > 1000 nM
  CRF1R Emax: 18%
[2]
  CRF2R EC50: 30.8 nM
  CRF2R Emax: 100%

## ZGPPISIDLPAYLLRKMIEIEKQEKEKQQAANNRLLLDTI (C-terminal amide) [SEQ ID NO 32]
[1]
  CRF1R EC50: 606 nM
  CRF1R Emax: 94%
[2]
  CRF2R EC50: 20.2 nM
  CRF2R Emax: 98%

## ZGPPISIDLPIKLLRKMIEIEKQEKEKQQAANNRLLLDTI (C-terminal amide) [SEQ ID NO 34]
[1]
  CRF1R EC50: > 1000 nM
  CRF1R Emax: 11%
[2]
  CRF2R EC50: > 100 nM
  CRF2R Emax: 45%

## ZGPPISIDLPILLLRKMIEIEKQEKEKQQAANNRLLLDTI (C-terminal amide) [SEQ ID NO 35]
[1]
  CRF1R EC50: > 1000 nM
  CRF1R Emax: 74%
[2]
  CRF2R EC50: 15.6 nM
  CRF2R Emax: 88%

## ZGPPISIDLPIILLRKMIEIEKQEKEKQQAANNRLLLDTI (C-terminal amide) [SEQ ID NO 36]
[1]
  CRF1R EC50: > 1000 nM
  CRF1R Emax: 33%
[2]
  CRF2R EC50: 14.8 nM
  CRF2R Emax: 73%

## ZGPPISIDLPINLLRKMIEIEKQEKEKQQAANNRLLLDTI (C-terminal amide) [SEQ ID NO 37]
[1]
  CRF1R EC50: > 1000 nM
  CRF1R Emax: 5%
[2]
  CRF2R EC50: > 100 nM
  CRF2R Emax: 51%

## ZGPPISIDLPIRLLRKMIEIEKQEKEKQQAANNRLLLDTI (C-terminal amide) [SEQ ID NO 38]
[1]
  CRF1R EC50: > 1000 nM
  CRF1R Emax: 11%
[2]
  CRF2R EC50: 71.9 nM
  CRF2R Emax: 91%

## ZGPPISIDLPVYLLRKMIEIEKQEKEKQQAANNRLLLDTI (C-terminal amide) [SEQ ID NO 39]
[1]
  CRF1R EC50: 1000 nM
  CRF1R Emax: 63%
[2]
  CRF2R EC50: 58.2 nM
  CRF2R Emax: 94%

## ZGPPISIDLPYYLLRKMIEIEKQEKEKQQAANNRLLLDTI (C-terminal amide) [SEQ ID NO 40]
[1]
  CRF1R EC50: 102 nM
  CRF1R Emax: 99%
[2]
  CRF2R EC50: 6.95 nM
  CRF2R Emax: 93%

## ZGPPISIDLPTWLLRKMIEIEKQEKEKQQAANNRLLLDTI (C-terminal amide) [SEQ ID NO 41]
[1]
  CRF1R EC50: > 1000 nM
  CRF1R Emax: 43%
[2]
  CRF2R EC50: 18.3 nM
  CRF2R Emax: 100%

## ZGPPISIDLPTTLLRKMIEIEKQEKEKQQAANNRLLLDTI (C-terminal amide) [SEQ ID NO 42]
[1]
  CRF1R EC50: > 1000 nM
  CRF1R Emax: 10%
[2]
  CRF2R EC50: > 100 nM
  CRF2R Emax: 88%

## ZGPPISIDLPTSLLRKMIEIEKQEKEKQQAANNRLLLDTI (C-terminal amide) [SEQ ID NO 43]
[1]
  CRF1R EC50: > 1000 nM
  CRF1R Emax: 10%
[2]
  CRF2R EC50: > 100 nM
  CRF2R Emax: 67%

## ZGPPISIDLPTFLLRKMIEIEKQEKEKQQAANNRLLLDTI (C-terminal amide) [SEQ ID NO 44]
[1]
  CRF1R EC50: 944 nM
  CRF1R Emax: 64%
[2]
  CRF2R EC50: 19.1 nM
  CRF2R Emax: 87%

## ZGPPISIDLPTKLLRKMIEIEKQEKEKQQAANNRLLLDTI (C-terminal amide) [SEQ ID NO 45]
[1]
  CRF1R EC50: > 1000 nM
  CRF1R Emax: 7%
[2]
  CRF2R EC50: > 100 nM
  CRF2R Emax: 44%

## ZGPPISIDLPTVLLRKMIEIEKQEKEKQQAANNRLLLDTI (C-terminal amide) [SEQ ID NO 46]
[1]
  CRF1R EC50: > 1000 nM
  CRF1R Emax: 17%
[2]
  CRF2R EC50: > 100 nM
  CRF2R Emax: 100%

## ZGPPISIDLPIALLRKMIEIEKQEKEKQQAANNRLLLDTI (C-terminal amide) [SEQ ID NO 47]
[1]
  CRF1R EC50: 1000 nM
  CRF1R Emax: 12%
[2]
  CRF2R EC50: > 100 nM
  CRF2R Emax: 66%

## ZGPPISIDLPEYLLRKMIEIEKQEKEKQQAANNRLLLDTI (C-terminal amide) [SEQ ID NO 48]
[1]
  CRF1R EC50: 1000 nM
  CRF1R Emax: 21%
[2]
  CRF2R EC50: 100 nM
  CRF2R Emax: 14%

## ZGPPISIDLPTDLLRKMIEIEKQEKEKQQAANNRLLLDTI (C-terminal amide) [SEQ ID NO 49]
[1]
  CRF1R EC50: > 1000 nM
  CRF1R Emax: 15%
[2]
  CRF2R EC50: > 100 nM
  CRF2R Emax: 37%

## IVLSLDVPIGLLQILLEQEKARAAREQATTNARILARV-NH2 [SEQ ID NO 3]
[2]
  CRF2R EC50: 12.1 nM

## SQEPPISLDLPLELLREVLEMTKADQLAQQAHSNRKLLDIA-NH2 [SEQ ID NO 89]
[2]
  CRF2R EC50: 100 nM
  CRF2R Emax: 12.7%

## IVLSLDVPIGLLQILLEQEKARAAREQATTNARILARV-NH2 [SEQ ID NO 107]
[2]
  CRF2R EC50: 12.1 nM

## IVLSLDVPIGLLQILLEQEKARAAREQATTNARILARV-NH2 [SEQ ID NO 121]
[2]
  CRF2R EC50: 5.67 nM

## ZGPPISIDLPQVLLRKMIEIEKQEKEKQQAANNRLLLDTI (C-terminal amide) [SEQ ID NO 197]
[2]
  CRF2R EC50: 48.1 nM
  CRF2R Emax: 94%

## ZGPPISIDLPQQLLRKMIEIEKQEKEKQQAANNRLLLDTI (C-terminal amide) [SEQ ID NO 198]
[2]
  CRF2R EC50: 29.9 nM
  CRF2R Emax: 100%
